Reference: patent US20030199040A1

How the values were obtained:
[1] = target: mIL-18 (purchased from PeproTech) (murine (printed as mIL-18)) (UniProt P70380); assay: cell-based or functional assay
[2] = target: mAcPL and mIL-1Rrp1 cotransfected on cells (COS7 or S49.1) (murine) (UniProt Q61098); assay: cell-based or functional assay
Sequence of mAcPL and mIL-1Rrp1 cotransfected on cells (COS7 or S49.1) (murine) (Q61098 19-537, chain 1 of 2): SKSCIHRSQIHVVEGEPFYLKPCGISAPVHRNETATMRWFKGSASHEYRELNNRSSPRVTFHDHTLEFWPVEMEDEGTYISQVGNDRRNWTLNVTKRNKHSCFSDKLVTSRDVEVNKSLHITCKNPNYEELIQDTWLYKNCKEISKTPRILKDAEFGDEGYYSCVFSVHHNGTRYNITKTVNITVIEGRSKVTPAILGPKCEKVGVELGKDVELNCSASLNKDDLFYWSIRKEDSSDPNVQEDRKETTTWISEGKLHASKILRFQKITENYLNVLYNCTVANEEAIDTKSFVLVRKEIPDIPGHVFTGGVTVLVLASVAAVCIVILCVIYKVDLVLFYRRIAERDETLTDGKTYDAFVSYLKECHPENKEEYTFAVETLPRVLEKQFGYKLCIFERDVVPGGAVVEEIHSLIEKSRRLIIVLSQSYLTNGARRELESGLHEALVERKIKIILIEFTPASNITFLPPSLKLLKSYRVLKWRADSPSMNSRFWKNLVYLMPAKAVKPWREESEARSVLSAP
Sequence of mAcPL and mIL-1Rrp1 cotransfected on cells (COS7 or S49.1) (murine) (chain, as listed by the source, chain 2 of 2): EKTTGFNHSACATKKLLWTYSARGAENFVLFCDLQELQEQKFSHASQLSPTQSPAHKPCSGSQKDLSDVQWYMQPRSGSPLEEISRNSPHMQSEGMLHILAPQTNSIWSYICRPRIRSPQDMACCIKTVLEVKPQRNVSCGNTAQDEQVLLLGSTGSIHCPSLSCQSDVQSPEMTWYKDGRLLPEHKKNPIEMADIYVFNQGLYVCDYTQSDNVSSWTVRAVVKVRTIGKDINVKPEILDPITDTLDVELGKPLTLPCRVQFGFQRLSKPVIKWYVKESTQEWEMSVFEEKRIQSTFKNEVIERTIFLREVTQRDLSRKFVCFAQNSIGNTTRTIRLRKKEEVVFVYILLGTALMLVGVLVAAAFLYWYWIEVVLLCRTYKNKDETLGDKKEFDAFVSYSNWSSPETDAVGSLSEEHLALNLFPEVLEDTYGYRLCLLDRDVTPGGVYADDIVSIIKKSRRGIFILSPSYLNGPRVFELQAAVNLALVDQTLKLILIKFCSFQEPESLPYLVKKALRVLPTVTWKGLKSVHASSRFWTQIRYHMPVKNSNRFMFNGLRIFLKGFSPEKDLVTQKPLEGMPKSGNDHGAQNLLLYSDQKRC

Sequence of mIL-18 (purchased from PeproTech) (murine (printed as mIL-18)) (P70380 36-192 limits assumed): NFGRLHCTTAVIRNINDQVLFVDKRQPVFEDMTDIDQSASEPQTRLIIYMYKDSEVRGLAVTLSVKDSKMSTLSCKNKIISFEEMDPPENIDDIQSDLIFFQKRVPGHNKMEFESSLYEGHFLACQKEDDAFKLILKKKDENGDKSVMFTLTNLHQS

inhibition of mIL-18 induced NFκB-luciferase activity in Cos7 cells transfected with mIL-1Rrp1 and mAcPL (10 ng/ml mIL-18 preincubated with the protein) [1]	luciferase activity (RLU) at 20 ug/ml and 50 ug/ml of the protein mixture; uninduced cells 3×10e3 RLU, mIL-18 without receptor-Fc 25×10e3 RLU [1]	increase in NFκB DNA binding activity (NFκB-Luc luciferase reporter), COS cells, 40 ng/mL IL-18 for 4 hours [2]	increase in NFκB DNA binding activity (NFκB-Luc luciferase reporter), S49.1 cells, 40 ng/mL IL-18 for 4 hours [2]	Substance
87%	6000 RLU			heterogeneous mIL-1Rrp1-Fc+mAcPL-Fc protein mixture (homodimers of mIL-1Rrp1-Fc, homodimers of mAcPL-Fc, and heterodimeric mIL-1Rrp1-Fc/mAcPL-Fc molecules) (from UniProt Q61098 20-322; Q9Z2B1 20-356) (Fc fusion)
		10 fold	300 fold	mIL-18 (purchased from PeproTech) (from UniProt P70380 36-192) (ligand)
